Laboratory results published in article PMC2786004 (Biochemistry, 2009).

Target: the molecule itself
Experiment: crystal structure

B1: Bacillus halodurans tRNA isopentenyltransferase MiaA (BH2366), full length (enzyme, UniProt Q9KAC3 1-314, looked up)
chain: MKEKLVAIVGPTAVGKTKTSVMLAKRLNGEVISGDSMQVYRGMDIGTAKITAEEMDGVPHHLIDIKDPSESFSVADFQDLATPLITEIHERGRLPFLVGGTGLYVNAVIHQFNLGDIRADEDYRHELEAFVNSYGVQALHDKLSKIDPKAAAAIHPNNYRRVIRALEIIKLTGKTVTEQARHEEETPSPYNLVMIGLTMERDVLYDRINRRVDQMVEEGLIDEAKKLYDRGIRDCQSVQAIGYKEMYDYLDGNVTLEEAIDTLKRNSRRYAKRQLTWFRNKANVTWFDMTDVDFDKKIMEIHNFIAGKLEEKSK
stoichiometry N: 2
